The Human Domainome abundance scans (Beltran et al. 2025)

B1: POU domain, class 4, transcription factor 3, residues 185 to 256; numbered along this chain, Q15319 (parent)
chain: RELEAFAERFKQRRIKLGVTQADVGAALANLKIPGVGSLSQSTICRFESLTLSHNNMIALKPVLQAWLEEAE

Variants of: B1
Assay: abundance fitness (aPCA) (normalised: wild type 0, dead -1); higher = more abundant; growth selection in yeast, the domain comes from the species named
Conditions: Homo sapiens

Abundance fitness of substitutions, site by site:
A27: L -0.233 | F -0.283 | G -0.196 | R -0.384 | D -0.431 | E -0.123 | V -0.139 | T 0.205 | K -0.126 | M -0.176 | C -0.266 | W -0.202 | Y -0.084
L17: I -0.359 | H -0.871 | M -0.099 | R -0.543 | F -0.405 | Q -0.983 | K -0.466 | V -0.682 | Y -0.448 | N -0.474
V24: I -0.123 | M -0.301 | W -0.61 | K -0.937 | Q -0.825 | G -0.858 | A -0.142 | P -0.842 | L -0.137 | E -1.04 | D -0.675 | C -0.223 | F -0.709 | R -0.83 | S -0.785 | T -0.565 | H -0.917 | Y -0.962
K11: E -0.945 | I -0.123 | V -0.186 | H -0.1 | P -0.751 | L -0.449 | M -0.125 | Y -0.474 | T -0.276 | F -0.478 | N -0.88 | Q -0.136 | S -0.208
A22: Y -0.115 | F -0.163 | M -0.179 | Q -0.214 | G -0.055 | N -0.02 | H -0.107 | W -0.329 | I -0.5 | T -0.207 | S -0.064 | D -0.176 | L -0.265 | C -0.264 | K -0.263 | R -0.087 | P -0.469 | V -0.298
R9: W -0.146 | H -0.018 | N -0.016 | P -0.642 | S 0.007 | Y -0.025 | E 0.033 | C -0.141 | M 0.111 | I -0.192 | F -0.33 | T 0.016 | K 0.022 | A -0.045 | G -0.198
A26: W -0.152 | G -0.15 | R -0.017 | K 0.04 | N -0.041 | P -0.472 | C -0.08 | Y -0.144 | M -0.095 | D -0.01 | I -0.133 | S -0.012 | H -0.052 | V -0.069 | F -0.113 | L -0.027 | Q -0.029 | E -0.051 | T -0.108
D23: H -0.017 | N -0.112 | M -0.135 | F -0.208 | T -0.307 | Y -0.411 | G -0.246 | K -0.121
N30: F -0.276 | E -0.083 | P -0.267 | G -0.058 | H -0.051 | S -0.186 | I -0.361 | M -0.239 | T -0.005 | R -0.148 | Q -0.022 | C -0.261 | W 0.007 | D -0.184 | V -0.177 | L -0.279
R13: L -0.139 | A -0.01 | I 0.05 | T 0.108 | D -0.234 | W -0.297 | P -0.938 | Y -0.133 | K -0.019 | Q -0.069 | C -0.265 | V -0.018 | N -0.119 | E -0.075 | S 0.08 | F -0.247 | H 0.151 | M -0.094
Q12: I -0.172 | A 0.006 | P -1.02 | K -0.115 | Y 0.121 | N 0.189 | L -0.066 | R -0.187 | M -0.034 | S -0.083 | E 0.07 | T -0.113 | G -0.377 | D 0.012
G25: C 0.143 | S -0.13 | A 0.117 | Q -0.531 | H -0.269 | W -0.317 | N -0.963 | K -0.311 | M -0.27 | F -0.13 | E -0.054 | R -0.203 | D -0.392 | L -0.159 | V 0.05
T20: E -0.18 | R -0.258 | H -0.221 | K -0.183 | I -0.623 | S -0.095 | D -0.562 | A -0.229 | P -0.273 | N -0.318 | G -0.25 | Q -0.27
G18: N -0.205 | A -0.43 | C -0.572 | Q -0.193 | Y -0.928 | F -0.784 | R -0.249 | T -0.884 | V -0.997 | S -0.435 | E -0.514 | W -1.05 | D -0.463 | K -0.296 | L -0.703
A29: Q 0.123 | D -0.25 | F -0.086 | M -0.119 | S -0.09 | K 0.023 | N -0.053 | V -0.2 | I -0.258 | W -0.181 | H -0.083 | L -0.21 | E 0.006 | R -0.114 | C 0.031 | G -0.022 | Y -0.305
F10: I -0.813 | L -0.697 | R -0.653 | V -0.765 | G -1.03 | W -0.287 | M -0.881
V19: H 0.007 | G -0.391 | K 0.078 | T -0.192 | P -0.835 | Q -0.151 | L 0.011 | M 0.12 | Y -0.01 | F 0.03 | S -0.14 | N -0.154
Q21: L -0.192 | N 0.112 | I -0.035 | C -0.243 | W -0.331 | F -0.413 | D -0.262 | K -0.285 | R -0.31 | T -0.193 | P -0.238 | H 0.294 | G -0.429 | V -0.002 | E 0.081 | A -0.086 | M -0.502 | S -0.289
E8: W -0.2 | S -0.033 | T 0.053 | Y -0.236 | Q 0.073 | P -0.698
K16: T -0.063 | S 0.011 | A 0.055 | M 0.008 | P -0.968 | Y -0.195 | V -0.099 | W -0.224 | R -0.01 | E 0.077 | I -0.192 | F -0.284 | H -0.077 | D -0.132 | G -0.129 | C 0.017
L31: D 0 | N -0.565 | C 0.352 | E 0.143 | S -0.094 | F -0.034 | M -0.284 | Q -0.202 | A 0.204 | G -0.59
L28: G -0.813 | K -0.915 | V -0.126 | C -0.443 | E -0.985 | R -1.06 | M -0.095 | Y -0.49 | D -0.716 | F -0.239 | S -0.688 | N -0.623
R14: F -1.11 | G -0.951 | E -0.95 | I -0.656 | V -0.759 | N -1.02 | Q -0.45 | A -1.1 | M -0.945 | D -0.454 | C -0.887 | T -1.15 | S -1.06 | L -0.805
I15: N -0.147 | S -0.183 | H -0.37 | V -0.098 | D -0.229 | K -0.052 | T 0.02 | M 0.024 | P -0.915 | G -0.423 | L -0.088 | A -0.093 | C -0.223 | Q -0.321 | F -0.32 | Y -0.32 | W -0.527 | E -0.067
